In experiment [1] the target is T1, monomeric soluble human CD200R extracellular domain (human, UniProt Q8TD46 29-265).
T1 construct: extracellular domain; also called hCD200R; monomeric CD200R protein
T1 sequence (looked up): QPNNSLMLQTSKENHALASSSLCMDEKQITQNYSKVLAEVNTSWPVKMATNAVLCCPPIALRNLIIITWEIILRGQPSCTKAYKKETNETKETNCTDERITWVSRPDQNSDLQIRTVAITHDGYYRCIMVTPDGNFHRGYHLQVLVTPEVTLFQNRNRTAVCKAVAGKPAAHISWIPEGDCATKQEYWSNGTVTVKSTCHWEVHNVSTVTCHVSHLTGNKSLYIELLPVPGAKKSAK
The experiment is described as follows: BLI (Octet), antibody on anti-human Fc probes, monomeric CD200R in solution, 25 C, 1:1 global fit. On the procedure:
Humanised variant antibodies combining the different heavy and light variable domains described in Example 6 were produced by transient transfection of HEK293 cells. All antibodies were expressed on a human IgGI isotype with a P238D Fc mutation. The unpurified supernatants were analysed by Protein A-HPLC to determine the antibody concentrations, as a measure of expression yield. […] Binding affinity of humanized variants to human CD200R was assessed by bio-layer interferometry on an Octet R4 instrument. Each antibody was captured directly onto anti-human Fc capture probes (Sartorius 18-5060) for 60 sec followed by baseline setting in assay buffer (DPBS, 0.01% Polysorbate-20). Association of monomeric CD200R protein to immobilised antibodies was measured in 4 different protein concentrations (300, 100, 30 and 10 nM in assay buffer) at 25° C., with an association time of 120s and dissociation of 120s in assay buffer only. A reference probe with no antibody immobilised was used for background subtraction. Kinetic rate constants and binding KDs were calculated using Octet Analysis Studio 12 software. Global curve fitting based on all 4 concentrations using a 1:1 model was performed, from which kon and koff were obtained to calculate KD using the relationship KD=koff/kon.
(Biolayer interferometry detects binding as a change in optical thickness at a sensor tip.)

The target in experiment [2] is T2, human CD200RLa full length construct on HEK293T cells (human, UniProt Q6Q8B3 24-271).
T2 construct: whole, on cells; also called CD200R1L
T2 sequence (looked up): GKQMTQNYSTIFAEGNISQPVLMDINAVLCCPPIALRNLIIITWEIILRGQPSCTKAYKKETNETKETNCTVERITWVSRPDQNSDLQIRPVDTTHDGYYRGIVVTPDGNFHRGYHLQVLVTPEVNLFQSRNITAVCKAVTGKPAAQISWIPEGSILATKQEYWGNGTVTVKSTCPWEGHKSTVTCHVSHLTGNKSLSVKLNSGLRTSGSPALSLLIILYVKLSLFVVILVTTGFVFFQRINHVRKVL
Description: flow cytometry on transiently transfected HEK293T cells. As for the experimental part: (§1) The binding of CD200R antibodies to human and cyno CD200R and CD200RLa constructs was assessed by flow cytometry of transiently transfected cells. CD200RLa has a charged transmembrane (TM) that is not expected to express well in the absence of appropriate binding partners. Therefore, in addition to the full length CD200RLa constructs, chimeric constructs were used consisting of the CD200RLa extracellular domain fused to mouse CD80 transmembrane and intracellular tail to enable cell surface expression.
(§2) HEK293T cells were plated out at 1 million cells per well in a 6 well plate the day before transfection. The following day cells were transfected with CD200R constructs using 2.5 μg plasmid DNA (a pcDNA3.4 vector containing the CD200R construct sequence) and 10 μl Lipofectamine 2000 (mixed in 200 μl Optimem for 5 minutes then added dropwise to cells). 48 hours after transfection, cells were collected by vigorous pipetting in cold PBS and 50,000 cells pelleted per well in 96 well U bottom plates.
(§3) Cells were then washed and stained for 30 minutes with a secondary staining mix containing a live/dead marker (Near IR LD, Biolegend cat #423106) and APC anti-hIgG (clone QA19A42, Biolegend cat #366906) or AF647 anti-mIgG1 (clone RMG1-1, cat #406618). As a control, cells were separately stained with the commercial anti-CD200R clone OX108 directly labelled with AF647 (Biolegend cat #329308). Finally, cells were washed and resuspended in FACS buffer for acquisition on a FACS Celesta flow cytometer.
In general terms: A flow cytometer gives signals particle by particle.

Experiment [3] has as its target T3, cyno CD200RLa full length construct on cells (cynomolgus, UniProt A0A2K5W6R0 30-275).
T3 construct: whole, on cells; also called cynomolgus CD200RLa expressed on cells
T3 sequence: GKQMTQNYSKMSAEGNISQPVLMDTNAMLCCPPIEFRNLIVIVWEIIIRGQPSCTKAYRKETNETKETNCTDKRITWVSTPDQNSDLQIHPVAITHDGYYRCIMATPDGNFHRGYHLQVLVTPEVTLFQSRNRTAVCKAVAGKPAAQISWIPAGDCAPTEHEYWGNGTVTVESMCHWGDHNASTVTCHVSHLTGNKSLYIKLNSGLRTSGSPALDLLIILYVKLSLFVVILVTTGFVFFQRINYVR
The experiment is described as above. On the procedure: as §1, §2, §3

Experiment [4] deals with T4, human CD200RLa extracellular domain fused to mouse CD80 transmembrane and intracellular tail, on HEK293T cells (human; mouse, UniProt Q6Q8B3 24-239; Q00609 247-306, limits assumed).
T4 construct: extracellular domain;domain: transmembrane and intracellular tail; also called human CD200RLa chimeric construct
T4 sequence (looked up): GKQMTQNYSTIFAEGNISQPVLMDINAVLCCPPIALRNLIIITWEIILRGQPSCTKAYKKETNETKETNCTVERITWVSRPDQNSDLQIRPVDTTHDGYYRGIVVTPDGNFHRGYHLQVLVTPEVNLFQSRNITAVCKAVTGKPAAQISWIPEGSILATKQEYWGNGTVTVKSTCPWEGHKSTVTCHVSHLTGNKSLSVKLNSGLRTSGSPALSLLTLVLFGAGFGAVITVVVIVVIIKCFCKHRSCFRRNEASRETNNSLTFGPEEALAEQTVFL
Described as above. As for the experimental part:
as §1, §2, §3

The target in experiment [5] is T1, monomeric soluble human CD200R …. The experiment is described as follows: SPR, captured antibody, soluble monomeric receptor injected, single cycle kinetics, 37 C. On the procedure: (§4) The binding affinity and kinetics of the CD200R antibodies of the present disclosure to human or cynomolgus CD200R were determined by surface plasmon resonance (SPR) using the Biacore T200 (GE Healthcare). Mouse antibody capture kit (GE Healthcare) was used to coat a Series S CM5 Sensor Chip (GE Healthcare) with polyclonal anti-mouse IgG.
(§5) Anti-CD200R antibody was captured onto the biosensor surface and a negative control antibody (clone Mopc21; Biolegend) captured in the reference channel. Various concentrations of monomeric soluble human CD200R extracellular domain, soluble cynomolgus macaque CD200R1 extracellular domain or soluble cynomolgus macaque CD200RLa (a highly homologous activating receptor) were injected over the immobilized antibodies in the buffer 10 mM Hepes, 150 mM NaCl, 0.005% v/v Surfactant P20, pH 7.4 (HBS-P) at 37° C., in a single cycle kinetics analysis. Association and dissociation rates were fitted using BiaEvaluation Software (GE Healthcare) after reference and blank subtractions, and dissociation constants were calculated (Table 2).
In general terms: SPR reads the build-up and loss of mass on a sensor chip optically.

Experiment [6] addresses T5, soluble cynomolgus macaque CD200R1 extracellular domain (cynomolgus macaque, UniProt G7NZT0 29-266).
T5 construct: extracellular domain; also called Cynomolgus CD200R
T5 sequence: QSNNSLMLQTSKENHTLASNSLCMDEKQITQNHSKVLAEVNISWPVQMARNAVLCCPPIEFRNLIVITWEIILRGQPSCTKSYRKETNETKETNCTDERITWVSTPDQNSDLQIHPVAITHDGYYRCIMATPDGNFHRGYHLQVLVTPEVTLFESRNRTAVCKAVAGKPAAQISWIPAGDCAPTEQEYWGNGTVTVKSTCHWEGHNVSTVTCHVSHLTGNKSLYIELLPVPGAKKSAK
The experiment is described as above. As for the experimental part: as §4, §5

B1: 2131_chimera (antibody, V domains shown)
VH: QVQLQQPGSELVRPGASVKLSCKASGHTFTSYWMHWVKQRPGQGLEWIGNIYPGSGSINYDEKFKSKAKLTVDTSSRTAYMQLSSLTSEDSAVYYCLTMTGTSWGQGTLVTVSA
VL: DVQMIQSPSSLSASLGDIVTMTCQASQGTPINLHWFQQKPGKAPKLLISGASNLEDGVPSRFSGSRYGTAFTLTISSLEDEDMATYFCLQFTYIPWTFGGGTKLEIK
B1: the affinity in experiment [1], expressed as Kd, was 3.04 pM. The binding result in experiment [2], in experiment [3] and in experiment [4] was “no binding (tested: 10 ug/ml)” throughout.

B2: anti-CD200R antibody clone 7.12.2 (mIgG1k isotype) (antibody, V domains shown)
VH: QVQLQQPGSELVRPGASVKLSCKASGYTFTSYWMHWVKQRPGQGLEWIGNIYPGSGTTNYDEKFKSKATLTVDTSSSTAYMQISSLTSEDSAVYYCTTGTSTYWGQGTLVTVSA
VL: DVQMIQSPSSLSASLGDIVTMTCQASQGTSINLNWFQQKPGKAPKLLIYGAVNLEDGVPSRFSGSRYGTDFTLTVSSLEDEDMATYFCLQHTYLPWTFGGGTKLEIKR
notes: Murine hybridoma antibody, IgG1 kappa
Consider B2, for which the Kd (commonly the free concentration of one partner at which half of the binding sites on the other are occupied at equilibrium, for simple one-to-one binding) in experiment [5] turned out to be 2.9 nM; in experiment [6], 0.708 nM.

B3: anti-CD200R antibody clone 3.10.2 (mIgG1k isotype) (antibody, V domains shown)
VH: QVQLQQPGSELVRPGASVKLSCKASGYTFTSYWMHWVKQRPGQGLEWIGNIFPGSDTTNYDEKFKSKAIMTVDISSSTVYMHLSSLTSEDSAVYYCITYTGAYWGQGTLVTVSA
VL: DVQMIQSPSSLSASMGDIVTMTCQASQGTNINLHWFQQKPGKAPKLLISGGSNLEDGVPSRFSGSRYGTDFTLTISSLEDEDMATYFCLQFTYLPWTFGGGTKLDIKR
notes: as for B2
Take B3: the dissociation constant Kd in experiment [5] turned out to be 0.4 nM; in experiment [6], 0.0015 nM.

B4: anti-CD200R antibody clone 2.2.7 (mIgG1k isotype) (antibody, V domains shown)
VH: QVQLKESGPGLVAPSQSLSITCTVSGFSLTSYGVHWVRQLPGKGLEWLGVIWAGGGTNYNSALMSRLSISKDNSKSQVFLKMNRLQTDDTAIYYCAREGLPRAMDYWGQGTSVTVSS
VL: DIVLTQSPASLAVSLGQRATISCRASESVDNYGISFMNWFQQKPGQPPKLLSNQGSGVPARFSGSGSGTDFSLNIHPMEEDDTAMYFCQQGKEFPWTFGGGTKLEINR
notes: as for B2
Consider B4, for which the dissociation constant Kd is 27.6 nM in experiment [5] and 159 nM in experiment [6].

B5: anti-CD200R antibody clone 26.1.2 (mIgG1k isotype) (antibody, V domains shown)
VH: EVQLQQSGPELVKPGASVKMSCKASGYTFTSYVMHWVKQKPGQGLEWIGYIHPYNDDIKHNEKFKDKATLTSAKSSSTVYMELSSLTSEDSAVYYCAREEYYGSRFAYWGQGTLVTVSA
VL: DIVLTQSPASLAVSLGQRATISCRASKSVRTSGYSYLHWYQQKPGQPPKLLIYLASNLESGVPARFSGSGSGTDFTLNIHPVEEEDAATYYCQYSGELPFTFGGGTKLEIKR
notes: as for B2
Take B5: the Kd in experiment [5] worked out at 0.7 nM; in experiment [6] it was 60 nM.

B6: hu2131_v20 (antibody, human IgG1, V domains shown)
VH: QVQLVQSGAEVKKPGASVKVSCKASGHTFTSYWMHWVRQAPGQGLEWMGNIYPGSGSINYDEKFQGRVTMTADTSTSTVYMELSSLRSEDTAVYYCLTMTGTSWGRGTLVTVSS
VL: DIQMTQSPSSLSVSVGDRVTITCQASQGTPINLHWFQQKPGKAPKLLISGASNLEDGVPSRFSGSGSGTEFTFTISSLQPEDAATYYCLQFTYIPWTFGQGTKLEIK
As for B6, the Kd in experiment [1] amounted to 2.75 pM. The binding result in experiment [2], in experiment [3] and in experiment [4] was “no binding (tested: 10 ug/ml)” each time.

These data come from patent US20230416361A1 (MIROBIO, published 2023).
